The record followed here is the DeepSol protein solubility set.

This data set is described as follows: soluble on expression in E. coli; label from the status in PepcDB or PDB records.
In the case of “MTTEYLDEERDLPLPRQKKGIDHTQTEPIRGFFGVKDMFAFENVGFTRSSEGKRYLVCGECEQGPVGFVDPVTEMNYVSPERLDVLPDVAAAAVEAGK”, the “soluble on expression in E. coli” value is on record as “not soluble”. In the case of “MTTHIQKPATGSPLTLLNGVLQVPDQPIIPFIEGDGIGCDVTPAMRSVVDAAVAKVYGGQRQIAWMELFAGQKAVQLYGEGQYLPDETMAAIREYKVAIKGPLETPVGGGIRSLNVAMRQDLDLYVCLRPVRYFEGTPSPMRHPEKVDMVIFRENSEDIYAGIEWPAGSPEAEKIIRFLREEMGVTKIRFPDSSAIGIKPVSTEGSERLIRRTIQYALEHGKPSVSLVHKGNIMKFTEGGFRDWGYALAEREFAGRVFTWRQKAAISKAEGKAAGQKAEQQAIADGKLIIKDVIADNFLQQILLRPEDYSVVATLNLNGDYVSDALAAEVGGIGMAPGANLSDTHAIFEATHGTAPDIAGQGKANPSSLILSAVMMLEHLGWGEAAQAIVAAMNATIAAGEVTGDLAALRGDVPALSTTEFTAALIRRF” it was “soluble”.

As to “MTTKLVRPSDQATSNQVPVPGALVPHLDQCALLLDIDGTLLDLAPTPREVWVPPELEQTLTNLLVRTSGALALVSGRSINDIDLIFAPMRLPAVGGHGAEMRLSGEGEAIATHAPPLDSELKSRLAAIARISPGILLEDKGYSLALHYRLAPHTEKAIYEAVAAIRAENPEAPLEVLPGKSVCEIKHSGFTKATGVLELMTRAPFKGRRPIFIGDDVTDETVFAIMPELRGLAFSVGRYSELTSGHFDEPRDVRNWLARLLEPANLEHHHHHH”, the “soluble on expression in E. coli” value was “soluble”.

“MTTLTLAELATITGGELFGDPTALVSAVAPMDKAQLGHVTFLSNPKYSKHLGDCKATVIMVKTSERELCPSNALVVADPYVAFAKVAQALDSTPSPAHGIAPSAVIAEDAKLGHNVSIGANAVIESGVQLGDNVVIGAGCFIGKQARLGDNTKLWANVTIYHKVEIGSDCLIQSGTVIGADGFGYANERGEWIKIPQLGSVRIGDRVEIGACTTIDRGALDDTVIEDNVIIDNQLQIAHNVHIGYGSALAGGTVIAGSTRIGKYCIIGGASVINGHIEIADGVTITGMGMVMRSIEEKGMYSSGIPLQTNKEWRKTAARVHRIDDMHKRLKALEKLLEQSDTVQPDNSQAE”: the “soluble on expression in E. coli” value is recorded as “not soluble”.

As for “MTTPFTHETLPADPKAAIRQMKQALRAQIGDVQAVFDRLSATIAARVAEINDLKAQGQPVWPIIPFSELAMGNISDATRAEVKRRGCAVIKGHFPREQALAWDQSMLDYLDKNHFDEVYKGPGDNFFGTLSASRPEIYPVYWSQAQMQARQSEEMALAQSFLNRLWQVEHDGKRWFNPDISIIYPDRIRRRPPGTTSKGLGAHTDSGALERWLLPAYQQVFASVFNGNVEQYDPWNAAHRTDVEEYTVDNTTKCSVFRTFQGWTALSDMLPGQGLLHVVPIPEAMAYILLRPLLDDVPEDELCGVAPGRVLPISEQWHPLLMAALTSIPPLEAGDSVWWHCDVIHSVAPVENQQGWGNVMYIPAAPMCEKNLAYARKVKAALETGASPGDFPREDYETTWEGRFTLRDLNIHGKRALGIDV”, the “soluble on expression in E. coli” value was “soluble”. As to “MTTTPANVLASVDLGSNSFRLQICENNNGQLKVIDSFKQMVRFAAGLDEQKNLSAASQEQALDCLAKFGERLRGFRPEQVRAVATNTFRVAKNIADFLPKAEAALGFPIEIIAGREEARLIYTGVIHTLPPGGGKMLVIDIGGGSTEFVIGSTLNPDITESLPLGCVTYSLRFFQNKITAKDFQSAISAARNEIQRISKNMRREGWDFAVGTSGSAKSIRDVLAAEMPQEADITYKGMRALAERIIEAGSVKKAKFENLKPERIEVFAGGLAVMMAAFEEMKLDRMTVTEAALRDGVFYDLIGRGLNEDMRGQTVAEFQHRYHVSLNQAKRTAETAQTFMDSLCHAKNVTVQELALWQQYLGRAAALHEIGLDIAHTGYHKHSAYILENADMPGFSRKEQTILAQLVIGHRGDMKKMSGIIGTNEMLWYAVLSLRLAALFCRSRQDLSFPKNMQLRTDTESCGFILRIDREWLERHPLIADALEYESVQWQKINMPFKVEAV”, the “soluble on expression in E. coli” value is “not soluble”. The entry for “MTVERLENGVIVQRNTNEIEISITLDTVHGKLEGSTGVNFFDHLLNTFCHYSGLGLRVSTCESKDGILHHLIEDFGISLGLAFRELFDYTKVRRFGEATVPMNEALVGCYVDLSGRPFFQKNFEFSVEKIEDMPVEGFEEFMCGFVNHARITVHFFKFFGKNDHHISESAMKSFGLAIAKALESSEKKTTKGVID” is “soluble”. The entry for “MTVITEPARQTPVIHNTDVLVVGSGPGGLAAALAAARAGVDVCLVERFGCFGGNITVVGVEGFAWYRHEATVEAGGIGREFEDRAREMGAAVPESQSLSYEIDSEGFKLVADRLVEEAGVHGMLHRQFVAPVMEGDRVAGIIVESKAGREAILARVVIDATGDADVAHRAGAPTLKTPAEHMQAASVMFHLAGVDKAAFMAEVRRDPQTYKDWSTGEWTVETDGKEDDMFSPFLKKPFAKAIEEGVIPPHLNTIAGTWGAMHDTGELTYMNLVHLAGVDGTDPDSLTQGEIEGRRQAMLAIEALRRFMPGCGGVRLRNFGMTIGIRDTRKIRAAYDMTETDVRQQGRFDDSIGIYPEFIDGYGVLIIPTTGRYMQIPYRAVLPGKVKGLLVAGRAIGGDRIAHAATRNMACCAVAGQGAGVAAALAVKTGCDVAQVDMAGVQAELLRQGVRIALEHHHHHH” is “not soluble”; for “MTVRVGDPELVLDPYDYDFHEDPYPYYRRLRDEAPLYRNEERNFWAVSRHHDVLQGFRDSTALSNAYGVSLDPSSRTSEAYRVMSMLAMDDPAHLRMRTLVSKGFTPRRIRELEPQVLELARIHLDSALQTESFDFVAEFAGKLPMDVISELIGVPDTDRARIRALADAVLHREDGVADVPPPAMAASIELMRYYADLIAEFRRRPANNLTSALLAAELDGDRLSDQEIMAFLFLMVIAGNETTTKLLANAVYWAAHHPGQLARVFADHSRIPMWVEETLRYDTSSQILARTVAHDLTLYDTTIPEGEVLLLLPGSANRDDRVFDDPDDYRIGREIGCKLVSFGSGAHFCLGAHLARMEARVALGALLRRIRNYEVDDDNVVRVHSSNVRGFAHLPISVQAR” it is “not soluble”.

In the case of “MTVSGPGTPEPRPATPGASSVEQLRKEGNELFKCGDYGGALAAYTQALGLDATPQDQAVLHRNRAACHLKLEDYDKAETEASKAIEKDGGDVKALYRRSQALEKLGRLDQAVLDLQRCVSLEPKNKVFQEALRNI”, the “soluble on expression in E. coli” value was “soluble”. The entry for “MTVTYIGHSGFLLETEDAYFLFDYFEGTIPELKNNKSIIVFSSHRHHDHFNPEIFELIKIYPDIRYVLSYDIPLKRHLKKYENQGIDLAKNILITKKNIETMLKLPNGKDLKISTFRSTDEGVAFLLEYDNKVYYHAGDLNCWYWKEEPKSYRNNMIQLYIREIQKMDNLKIDVAFVPLDPRLEETAYEGLEIFMEHTNPQIVFPMHCWGKYDIISSFLNKHPEYKEKIRMINNEGQIFNV” is “not soluble”; for “MTVVDAHLHVWDPEQAAYEWLGPAMAPVDRAMRFHDALPALRTAGVGAAVLVQAADNDEDTDLMLATAARHPEVVGVVAWVPLDDPGRARARLAALRRDPHVVGVRTLLHERSDPDWVLGPDADAGLALLAEAGLPFDYSTTSPAALRHLAELSARHPALRLVVDHLGKPPVGGGREDRAEWHRLIAAAAKHPGVHAKLSGLYSASGALDAWTTDEVRPFVEDALELFGPERLMYGGDWPISLLAGGYARTWEAMCELLAPLAPDDRAAVLGGTATRFYRLDPALLNTAHHAAVLEHHHHHH” it is “not soluble”; for “MTYILKTNQLTKVFKGKEVISSVNMHVKKGEIYGFLGPNGAGKTTIMKMITNLIKPTSGEIEIFGEKLTDTSYEVLKRMGTIIEYPIFYDKLTAKENLELHCEYMGYYDKNEIDHALHLVKLQGIDNKKVKDFSLGMKQRLGIARAIVTKPELLILDEPINGLDPIGIKELRDLFKMLCKEYGITLLVSSHILGEMELMADTIGVIQNGKLIKEVSMKSINGKQTEYIEITVPDVKRAAYILEDKLGIKNYKIMSGNMIRVYDTAVSQQAISKALIMNDVEIESINKKHSSLEEYFLNVMDGEGIHA” it is “not soluble”.

Consider “MTYQDRSGATAVVQSSYQLVLLTPAAIHGADPREKAEFRLSSLRGVWRYWWRTLQDEPDPEKLLAKEEEWFGGTRKMKQQSPIHLSMAGVMEGTKKENILPHRTSPTLVPALPAGGEVTVTLSVRKRHQERLAQYDWYFQYVLHLASFGQRSRRGFGAVQWIGHQWSNVGEYVESLRMVLEHIGVAGAFSFAERDCLVARRGDIQTQHPVLSAVWIGEGKESAAEVVKAFGKASHEANRYGSLGYMRGKAGKLSSTLWCTVRKIGNWYYPIVTEVRNHDPHYSEPRYEQDRNRFLEIVGVRI”, for which the “soluble on expression in E. coli” value was “not soluble”. The entry for “MVAELAGQQDPGLGAFSCQEARRAWLDRHGNLDEAVEECVRTRRRKVQELQSLGFGPEEGSLQALFQHGGDVSRALTELQRQRLEPFRQRLWDSGPEPTPSWDGPDKQSLVRRLLAVYALPSWGRAELALSLLQETPRNYELGDVVEAVRHSQDRAFLRRLLAQECAVCGWALPHNRMQALTSCECTICPDCFRQHFTIALKEKHITDMVCPACGRPDLTDDTQLLSYFSTLDIQLRESLEPDAYALFHKKLTEGVLMRDPKFLWCAQCSFGFIYEREQLEATCPQCHQTFCVRCKRQWEEQHRGRSCEDFQNWKRMNDPEYQAQGLAMYLQENGIDCPKCKFSYALARGGCMHFHCTQCRHQFCSGCYNAFYAKNKCPEPNCRVKKSLHGHHPRDCLFYLRDWTALRLQKLLQDNNVMFNTEPPAGARAVPGGGCRVIEQKEVPNGLRDEACGKETPAGYAGLCQAHYKEYLVSLINAHSLDPATLYEVEELETATERYLHVRPQPLAGEDPPAYQARLLQKLTEEVPLGQSIPRRRK” is “soluble”. The entry for “MVAHQKADFKSKWAMVVTVNNLNDKKRADLREFSEWFIETLRLEGAFIGHYFNYEAAPVTIVETLPGNFDSCTNAYQKIHKEHPQVVLVVHILPQSQSNEYEWMKVLASRYGFVRQGLLYDNCANRFQNVETDQNSVFRNMCQWIYRSGTAIVRNEGNACGILHGKDPKPTFDKVLFNSEDIKDSVFKVLHAEEEPRGADQENMLKISGYPGMLNTFGIAQLLTPYRVNGITITGAQSAVVALENKFQVYQAVQDFNGKKLDRNHKLQVSSLVVSSPAVPLEWPSLKKSKKLVEQVGKPIRLSKVSS” is “not soluble”. In the case of “MVAHSSVEGNQGIEDRQVSTEASSDVFQSQRSRPRQSTVAFQTHFKPFNYARDFKIISNTTSMLEESGFYWGPMTVEEAHLKLKKESVGTFLIRDSRQSDVFFTLSYKAQNGPVSIRINFKNSKFSLTGSKESFDSLFKLLEHYISSPKKGLIRPCRKEPVQSLQQLCRRQIMERCDGKDIDCIPVQPILKDFLHAFPHPL”, the “soluble on expression in E. coli” value is listed as “not soluble”. In the case of “MVASESILQALQTVIDPNTGKDLVTTRAIRNLEVNGADVTFDAQLGYPAKSQIPALRRALIAAARGVAGVDNVSVNMQSVIETHAVPRGIALLPNVKNVIAVASGKGGVGKSTTAVNLALALAAEGARVGLLDADIYGPSQAQMMGIEGRPQSEDGKTMEPLENYGVQVMSIGFLVDADEAMIWRGPMAVQALEQLLRQTNWKNLDYLVIDMPPGTGDIHLTLSQKVPVTGAVIVTTPQDIALLDARKGVKMFEKVGVPIVGVVENMAVHVCSQCGHAEHIFGQGGGQRMAQDYGLAYLGALPLDINIRQQADGGRPSVVADPDGEVAGLYKDVARQVAVAVAAMGKDYSSKFSSISISRAPAGGAAALEHHHHHH” it was “soluble”; in that of “MVATAFCDNIGFFKSPTEKRCDKDYECSGTDLCGHYVCTPLSEFRKCPEDKRCGFEYSCMSGVCRYMSDFDAERRFSNFGPDMKCKDSRVCPIGLHCSNGNCV”, “not soluble”.
